The DeepSol protein solubility set

Test: soluble on expression in E. coli; label from the status in PepcDB or PDB records

Row | Sequence | soluble on expression in E. coli
1 | MSRVCVFFLLSFIFSVHADPKVVNLFRVTSLGSLTISVESGGKIFLASGDDNQYLKNIQLTTGTTTITLDKLNDLNDDGSPKFITAAGSVILQTSNNDTTTSRLSGYIYVTTYLQAQDPTFSVYVLKTTQSISKMGMKSTVVVLNTVLRQELIDYDMPRAISYVTKIDHSPNTNLYFQWDIPASNWNDVTNNTFFRNPIELKNGTGPHFKVFFDNIEPLQIGLNYWYITSMGPFNLFLENKYVSDHSYTTTAVNTTGIIVGKSFYADRVVNFQSDTSRSSASGFFDSAYITDDLTIKLQFVGASFSNTLRKESETQNYAWSPAAPVNLTVTSTSTLPGTFYIQYFAFAGDLQPLTSTVATSLMLQTSTTTVASTAVTTSRIITTTKGSSSNCGVHILISLLLSMVFC | not soluble
2 | MKDIEKARRYLRNAGEMLRKNEVDEDGIYNNRKHVKIAGNRAYSGVLTALDAVLGNKTSDRKTLDWYEEELTNIDPKILPYFLTAYDVLYLAMGYDGNLIAAISKEGLDIAEKIINWAEQRTAA | not soluble
3 | MGHHHHHHSHDSKACISIGNQNFEVKADDLEPIMELGRGAYGVVEKMRHVPSGQIMAVKRIRATVNSQEQKRLLMDLDISMRTVDCPFTVTFYGALFREGDVWICMELMDTSLDKFYKQVIDKGQTIPEDILGKIAVSIVKALEHLHSKLSVIHRDVKPSNVLINALGQVKMCDFGISGYLVDSVAKTIDAGCKPYMAPERINPELNQKGYSVKSDIWSLGITMIELAILRFPYDSWGTPFQQLKQVVEEPSPQLPADKFSAEFVDFTSQCLKKNSKERPTYPELMQHPFFTLHESKGTDVASFVKLILGD | not soluble
4 | MRLYINEIKIKDDILYCYTEDSIKGLSEVGQMLVDSDNYAFAYTLDDGKAYAYLIFVQETWTMLHENTTKKIIINDELELTEFHQELTYILDNIKGNNNYGKEFVATVEETFDIE | not soluble
5 | MGSDKIHHHHHHMTTPRRALIVIDVQNEYVTGDLPIEYPDVQSSLANIARAMDAARAAGVPVVIVQNFAPAGSPLFARGSNGAELHPVVSERARDHYVEKSLPSAFTGTDLAGWLAARQIDTLTVTGYMTHNCDASTINHAVHSGLAVEFLHDATGSVPYENSAGFASAEEIHRVFSVVLQSRFAAVASTDEWIAAVQGGTPLARGNIYASNQKARARRATA | not soluble
6 | GPHVKSGLQIKKNAIIDDYKVTSQVLGLGINGKVLQIFNKRTQEKFALKMLQDCPKARREVELHWRASQCPHIVRIVDVYENLYAGRKCLLIVMECLDGGELFSRIQDRGDQAFTEREASEIMKSIGEAIQYLHSINIAHRDVKPENLLYTSKRPNAILKLTDFGFAKETTGEKYDKSCDMWSLGVIMYILLCGYPPFYSNHGLAISPGMKTRIRMGQYEFPNPEWSEVSEEVKMLIRNLLKTEPTQRMTITEFMNHPWIMQSTKVPQTPLHTSRVLKEDKERWEDVKEEMTSALATMR | soluble
7 | PDVDGMITLKVDNLTYRTSPDSLRRVFEKYGRVGDVYIPREPHTKAPRGFAFVRFHDRRDAQDAEAAMDGAELDGRELRVQVARYGRRDL | soluble
8 | MRNEEKHALRRELRRARAQMGHQGRLAAGQTINRLLKRYIKRGRKIGVYWPMGKELRLDGFVRAAQKRGAKLYLPYIEPRSRRMWFTPYPESGMERERIRGRAKLNVPQFAGRKIRVHGLSVLLVPLVGIDREGYRLGQAGGYYDATLAAMKYRLQAKTVGVGFACQFVDRLPREPHDLLLDGFVSEAGILCFLEHHHHHH | not soluble
9 | MGTKREKDSLAFLLNSGARLLNNAFERRISEAGLGLTPGEARALLTVAVVDGSKQSDIAARLGIEPMTICAYLDKLQSLDLIERQQDPQDRRSKRIVLTKNSTDMLEAVRQEIDELVRHATRGLNEDEVALFRSFLQTLRDNLQPEQPGQSC | soluble
10 | MGHHHHHHSHHPFVRSAKGVSILRDLINEAMDVKLKRQESQQREVDQDDEENSEEDEMDSGTMVRAVGDEMGTVRVASTMTDGANTMIEHDDTLPSQLGTMVINAEDEEEEGTMKRRDETMQPAKPSFLEYFEQKEKENQINSFGKSVPGPLKNSSDWKIPQDGDYEFLKSWTVEDLQKRLLALDPMMEQEIEEIRQKYQSKRQPILDAIEAKKRRQQNF | soluble
11 | MSLKSYRPIELAKMFNLHSNTIRFYESIGYISKASRKPNGYREFTDKHILQLTICRHILGYRYTNRHIRDTGKLIIICSAESKLIEGKQYAQDYIKIIQNEIEIAEKTAQLLHKWAELKRDTDNSDSIEKFYTRNEVACLLGVTSEAVRNWERNDLIKSDKRGYRNAVLFNNIDLDRIRIIYMLRQTGYSMSAIHRCLMVYDKGQTELVVAALNKTDERELLSVGDCWLSELKKLESAAEEIPLIFDKLKESEGHHHHHH | soluble
12 | LRIEPVHDVEHSATVRDLEHIVAESRDAGELPRELSTLLGRILDFPTRTAGHAMIPRAHVDTVRAHDSLSSVLEKMGAGHTRYPVVGSSSDDLRGVIHLHDLLGEQSDGPAASRARPAVVVPSSLPLPDVLEQLTAARDEMALVVDEYGGFAGVITIEDLAEELVGEIA | not soluble
13 | MSLTAYKRVLLKLSGESLMGAQQYGIDPNRLADYASDIKEACAMGVQIGIVIGGGNIFRGVSGAAKGFDRVKGDQMGMLATVINSLALSSALEGVGVKTKVLTAVRMEPIGEFYNKWHAIELLEQGYVTIFSCGTGNPFFTTDTGSSLRGIEIEADAMLKGTRVDGIYTADPEKDPSATKFDRITYDEIYARGLKVMDLTATAMCMENNLPIVVFDMDTPGNLLKVLRGEKIGTYVSNTSAEGHHHHHH | soluble
14 | MGSDKIHHHHHHMNVYEKGNGVILEGVTDFDPVHIFECGQCFRWHKQEDGSYTGVAKGRILNVKKENDKIYLNNTNLKEFNSIWYNYFDLGTDYTEIKNKLKNMDEYLNKATEFGWGIRILRQDGWEMLISFIISSNNRIPMIQRAIENLSRKFGKYIGEYEGNEYYAFPTPEELNKASQEEIRACQTGFRDKYIKSTTQAVIENNDEVSEYTNLSTEDCRKELLKFNGVGPKVCDCIALFGMQKYDSFPVDVWVKRVMQEFYIDEDMSLPKMRTYGIDKFKEMSGFAQQYLFYYARELGIGK | not soluble
15 | MSTTVGRPSNEIASCQVCHSTERTRLYFGITSCAACAAFFRRSDGIRYMCTATNSCTISHDMKFFCRACRYTSCIRAGMVMSRNALATARKAPNNIIPREPTPRSVPSLEEVDGFSKILNISNGDLLKYYVKEVESIMAQQRYGEQKNALQVKSVNDLMIVTAYQEGTSLESCFNCPGVDILYNEDVEVVHKYFKFSNTWIDSLLAPTSPLDPSCNERISEFIHLLKSTLGSTLAQLNLNIIEYAAFKSFCIWKLVYHKTSISMKIVAQEHYEGVTSALRKYYRKNIKMSELEMATRIGDITLQIITVSNLYNDMARMYHQTGLQL | not soluble
16 | MSLGQIKGDLHMHSTWSDGAFSIREMAEACIKKGYQYMAITDHSQYLKVANGLTAERLKQQAKEIDALNAEFENFRILKGVEMDILPDGTLDYDDDVLAEMDIVIASIHSSFNQPEHVIMKRLETALTNKHVDIIAHPTGRLIGRRAGYEIDIDQLIELARKTNTALELNANPARLDLRTEHLMKANEQGVTLVINTDAHNIEMLDDMKTGVTAARKGWTETKNVLNARSLKDVEAFLKRNDEGHHHHHH | soluble
17 | MADYIYIDNSNLYIEGRRVSAVQQRLATNINEAMRDGILDHGYTISFGKLHEFLTGGDLTKIKRAALYGSRPPPNDSIWKSAERAGFELHLEDRNVANKEKKIDTGIATLLTKDAYKHGKPEEDLFVLVAGDKDYVPTLNELRADGYQVEVVFWSHAAKELKDAATRFISLDQHLEHLRF | soluble
18 | MERNKLARQIIDTCLEMTRLGLNQGTAGNVSVRYQDGMLITPTGIPYEKLTESHIVFIDGNGKHEEGKLPSSEWRFHMAAYQSRPDANAVVHNHAVHCTAVSILNRSIPAIHYMIAAAGGNSIPCAPYATFGTRELSEHVALALKNRKATLLQHHGLIACEVNLEKALWLAHEVEVLAQLYLTTLAITDPVPVLSDEEIAVVLEKFKTYGLAIEE | soluble
19 | MRRRSGINTSAVRYCLRKRKDITLLNPIVRKFQYGQHTVTLETGMMARQATAAVMVSMDDTAVFVTVVGQKKAKPGQDFFPLTVNYQERTYAAGRIPGSFFRREGRPSEGETLIARLIDRPIRPLFPEGFVNEVQVIATVVSVNPQVNPDIVAMIGASAALSLSGIPFNGPIGAARVGYINDQYVLNPTQDELKESKLDLVVAGTEAAVLMVESEAELLSEDQMLGAVVFGHEQQQVVIQNINELVKEAGKPRWDWQPEPVNEALNARVAALAEARLSDAYRITDKQERYAQVDVIKSETIATLLAEDETLDENELGEILHAIEKNVVRSRVLAGEPRIDGREKDMIRGLDVRTGVLPRTHGSALFTRGETQALVTATLGTARDAQVLDELMGERTDTFLFHYNFPPYSVGETGMVGSPKRREIGHGRLAKRGVLAVMPDMDKFPYTVRVVSEITESNGSSSMASVCGASLALMDAGVPIKAAVAGIAMGLVKEGDNYVVLSDILGDEDHLGDMDFKVAGSRDGISALQMDIKIEGITKEIMQVALNQAKGARLHILGVMEQAINAPRGDISEFAPRIHTIKINPDKIKDVIGKGGSVIRALTEETGTTIEIEDDGTVKIAATDGEKAKHAIRRIEEITAEIEVGRVYTGKVTRIVDFGAFVAIGGGKEGLVHISQIADKRVEKVTDYLQMGQEVPVKVLEVDRQGRIRLSIKEATEQSQPAAAPEAPAAEQGE | not soluble
20 | MSLVHQLLAQMENGYMKIIKENLVGIYLHGSYAFGTYCHSVSDLDVLIVVYEKLTIDEKKQLLDYTINILDKWAPKKGIEFHVLQLKDTINLSYPIPFDLHFSPIHRSRYLTNKNKYIEDMMGYDEDLVAHLMITKLYGKVLVGKPIDSVFGWIDQKKYFESIVADVKEAKKEIVQQPMYVILNMCRVMAFKQENKILSKRAGGEWGLVHFPTNHHSLIQLALKEYRGETVLLEQYNDSELNDFADIMLSLLFKEGHHHHHH | not soluble
21 | MSLRPVPSGQDPIKVVHYSDIHVDQLYTEGSNAKCNKPICCRQVKIIRHTHKSWTDFSRPFTENDEPGKTDSPAGPFGEHTCDSPVSLEHSMYQAIKEIVPDASFTIFTGDVVDHSIWNTTWDYNKHQIIESYENMDKHLGIVYGTAGNHESHPTNAYQPSSIGGASSWIYDLLAGAWSRWIGHEAASKAAQIGAYSTKFPHGNLRVISLNTNLYYRGNFWLFQRKMIRDPSKQFDWLIEELHAAEKAGERVYIIGHMPPGDRNAFHDQSNYLNQIVNRYSSTIAAMFFGHTHRDHFQITYSEAPKKSFSNALLTSYVGPSLTPTSGMPSFRVYDVDPITFAVLDATTYSADMNSPTYQTQGPVWKKYYSAKETYGEGHHHHHH | not soluble
